Reference: patent US20220242973A1 (Molecular Partners, published 2022)
One block for each binder: values may come before it.

Experiments:
[1] = target: T1, Recombinant human FAP (fibroblast activation protein) (human, UniProt Q12884 26-760); experiment: cell-based or functional assay
T1 sequence (looked up): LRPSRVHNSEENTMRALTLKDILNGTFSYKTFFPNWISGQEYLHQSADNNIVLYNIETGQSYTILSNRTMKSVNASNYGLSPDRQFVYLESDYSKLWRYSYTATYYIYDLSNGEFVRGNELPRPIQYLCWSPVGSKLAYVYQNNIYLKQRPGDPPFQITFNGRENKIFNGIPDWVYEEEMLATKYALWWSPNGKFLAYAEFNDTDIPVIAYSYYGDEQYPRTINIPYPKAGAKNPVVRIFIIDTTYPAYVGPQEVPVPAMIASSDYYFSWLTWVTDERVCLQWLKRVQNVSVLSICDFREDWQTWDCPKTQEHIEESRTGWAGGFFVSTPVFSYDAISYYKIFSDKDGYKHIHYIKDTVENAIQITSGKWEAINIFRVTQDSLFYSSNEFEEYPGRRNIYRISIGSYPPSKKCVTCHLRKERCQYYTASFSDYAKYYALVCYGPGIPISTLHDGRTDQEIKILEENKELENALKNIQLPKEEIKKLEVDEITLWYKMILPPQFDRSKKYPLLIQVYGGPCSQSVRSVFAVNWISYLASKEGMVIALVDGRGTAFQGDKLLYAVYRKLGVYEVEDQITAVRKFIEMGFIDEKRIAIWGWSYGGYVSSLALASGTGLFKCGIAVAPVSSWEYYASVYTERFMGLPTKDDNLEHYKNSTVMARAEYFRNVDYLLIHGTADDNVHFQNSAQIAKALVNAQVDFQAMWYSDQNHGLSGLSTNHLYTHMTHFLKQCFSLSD

[2] = target: T2, Human FAP expressed on the cell surface (WI38, CHO-FAP1.9, U87MG cells) (human, UniProt Q12884 1-760); experiment: FACS on FAP-expressing WI38 cells, Penta-His AF647 detection
T2 construct: whole, on cells; Endogenous on WI38 and U87MG cells; from a human FAP cDNA (OriGene) in CHO-FAP1.9 cells; also called hFAP; FAP+ cells
T2 sequence (looked up): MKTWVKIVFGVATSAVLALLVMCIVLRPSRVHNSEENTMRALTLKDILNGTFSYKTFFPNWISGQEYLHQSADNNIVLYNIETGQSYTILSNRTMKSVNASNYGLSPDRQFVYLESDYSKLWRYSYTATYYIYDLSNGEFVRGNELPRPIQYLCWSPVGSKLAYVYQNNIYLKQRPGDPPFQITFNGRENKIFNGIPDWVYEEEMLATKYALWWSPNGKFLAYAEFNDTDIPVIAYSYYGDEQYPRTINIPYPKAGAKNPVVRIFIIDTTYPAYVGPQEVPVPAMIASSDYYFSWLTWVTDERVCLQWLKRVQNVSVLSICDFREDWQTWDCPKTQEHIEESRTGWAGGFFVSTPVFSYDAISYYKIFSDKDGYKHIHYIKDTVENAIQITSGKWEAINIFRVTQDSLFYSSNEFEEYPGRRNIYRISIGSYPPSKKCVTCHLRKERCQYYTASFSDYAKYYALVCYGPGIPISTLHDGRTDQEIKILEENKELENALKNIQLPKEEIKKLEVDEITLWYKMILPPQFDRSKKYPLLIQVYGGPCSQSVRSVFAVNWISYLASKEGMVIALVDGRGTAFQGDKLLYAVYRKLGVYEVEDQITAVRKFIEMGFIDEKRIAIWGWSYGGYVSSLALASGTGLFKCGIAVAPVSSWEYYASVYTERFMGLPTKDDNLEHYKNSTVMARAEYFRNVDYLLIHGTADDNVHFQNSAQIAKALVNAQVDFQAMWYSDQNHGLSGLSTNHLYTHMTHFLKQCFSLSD
Experimental: Using multi-well plates, 20,000 WI38 cells were added per well in 50 μl of PBS. 50 μl of appropriate dilutions (2× dilution steps) of ankyrin repeat protein was then added to the cells and incubated for 30 minutes on ice. After the ankyrin repeat protein-binding reaction, cells were washed twice with PBS. Direct immunofluorescent detection of the His-tagged ankyrin repeat proteins using Penta-His AF647 conjugate (QIAgen) and determination of live cells using LIVE/DEAD™ Fixable Green Dead Cell Stain Kit (ThermoFisher) were then performed together in one step. The Penta-His AF647 conjugate and the LIVE/DEAD™ Fixable Green dye were applied to the cells together in 1/200 (Penta-His) and 1/1000 (LID Fixable) final dilutions and incubated for 20-30 minutes on ice. After washing the cells with PBS, cells were re-suspended in 1× CellFix™ buffer (BD Biosciences) (10× stock was diluted 1/10 in water). The samples were incubated in CellFix™ buffer for 15-20 minutes at RT, then spun down at 400 g for 5 min. Supernatant was discarded and cells were re-suspended in 200 μl PBS and stored at 4° C. until acquisition and FACS analysis. Acquisition and FACS analysis, including the determination of median fluorescence intensity (MFI), were done within 5 days after staining using an AttuneNxT instrument. Binding curves were fitted by non-linear regression curve fitting using GraphPad Prism software (v 7.0.4).
EC₅₀ values were determined using standard procedures known to the person skilled in the art. […] Table 2 provides the EC₅₀ values of selected ankyrin repeat proteins as examples.

[3] = target: T1, Recombinant human FAP (fibroblast …); experiment: SPR (ProteOn), human FAP immobilized on GLC chip
Experimental: Briefly, human FAP was diluted in 10 mM Na-acetate pH 5.3 buffer and covalently immobilized on a GLC chip (BioRad) to a level of around 2000 resonance units (RU). The interaction of ankyrin repeat protein and hFAP was then measured by injecting 200 μl running buffer (PBS, pH 7.4 containing 0.005% Tween 20®) containing serial dilutions of ankyrin repeat proteins covering a concentration range between 30 nM and 0.5 nM (on-rate measurement), followed by a running buffer flow for at least 25 minutes at a constant flow rate of 100 μl/min (off-rate measurement). The regeneration was performed using 15 μl of 10 mM Glycine pH 2 followed by 15 μl of 124 mM H₃PO₄. The signals (i.e. resonance unit (RU) values) of the interspots and a reference injection (i.e. injection of running buffer only) were subtracted from the RU traces obtained after injection of ankyrin repeat protein (double-referencing). Based on the SPR traces obtained from the on-rate and off-rate measurements, the on- and off-rate of the corresponding ankyrin repeat protein—FAP interaction was determined.
Dissociation constants (KD) were calculated from the estimated on- and off-rates using standard procedures known to the person skilled in the art. […] Table 1 provides the KD values of some selected ankyrin repeat proteins as examples.

B1: DARPin® protein #24 (designed binder)
chain: MRGSHHHHHHGSYPYDVPDYAGSDLGEKLLEAARRGQDDEVRELLKAGADVNAKDRYGITPLHLAAFLGHLEIVEVLLKDGADVNAKDEWGATPLHVAAYKGHLEIVEVLLKAGADVNAQDLYGKTPADLAAEQGHEDIEEVLQKLN
FAP activity (%) [1]: 102%
EC50 [2]: 4.49 nM
Kd [3]: 1.47 nM

B2: DARPin® protein #7 (designed binder)
chain: MRGSHHHHHHGSYPYDVPDYAGSDLGKKLLEAARAGQDDEVRELLKAGADVNAKDEWGKTPLHLAAALGHLEIVEVLLKAGADVNAKDAWGATPLHVAAFAGHLEIVEVLLKAGADVNAKDTIGFTPLHLAAHSGHLEIVEVLLKAGADVNAQDKSGKTPADLAADAGHEDIVEVLQKLN
FAP activity (%) [1]: 123%
EC50 [2]: 1.45 nM
Kd [3]: 0.744 nM

B5: DARPin® protein #2 (designed binder)
chain: MRGSHHHHHHGSYPYDVPDYAGSDLGKKLLEAARAGQDDEVRILLAAGADINAKDKYGVTPLHLAAWAGHLEIVEVLLKAGADVNAKDQSGFTPLHLAAHRGHLEIVEVLLKAGADVNAKDYRGFTPLHLAAEDGHLEIVEVLLKAGADVNAQDKSGKTPADLAADAGHEDIAEVLQKLN
FAP activity (%) [1]: 117%
EC50 [2]: 5.26 nM
Kd [3]: 8.24 nM

B6: DARPin® protein #21 (designed binder)
chain: MRGSHHHHHHGSYPYDVPDYAGSDLGQKLLNAAFIGQDDEVRILLAAGAGVNAKDRHGHTPLHVTAHHGHLEIVEVLLKAGTDVNAKDNQGNTPLHVAAEADHLEIVEVLLKAGADVNAQDAHGRTPADLAAQLGHEDIAEVLQKLN
FAP activity (%) [1]: 108%
EC50 [2]: 2.19 nM
Kd [3]: 0.885 nM

B8: DARPin® protein #22 (designed binder)
chain: MRGSHHHHHHGSYPYDVPDYAGSDLGDKLLTAANYGQDDEVRILLAAGADVNAKDRFGHTPLHVAAHFGHLEIVEVLLKAGADVNAKDSLGHTPLHLAAEAGHLEIVEVLLKAGADVNAQDFHGITPADLAAHQGHEDIAEVLQKLN
FAP activity (%) [1]: 100%
EC50 [2]: 1.22 nM
Kd [3]: 3.4 nM

More lines, in order of falling EC50 [2], values ahead:

FAP activity (%) [1]: 100%
EC50 [2]: 1.82 nM
Kd [3]: 2.78 nM
B9: DARPin® protein #23 (designed binder)
chain: MRGSHHHHHHGSYPYDVPDYAGSDLGLKLLSAAQVGQDDEVRILLAAGADVNVKDQFGHTPLHVATHFGHLEIVEVLLKAGADVNAKDALGHTPLHLAAEAGHLEIVEVLLKAGADVNAQDAHGRTPADLAAQLGHEDIAEVLQKLN

FAP activity (%) [1]: 110%
EC50 [2]: 0.664 nM
Kd [3]: 0.441 nM
B3: DARPin® protein #27 (designed binder)
chain: MRGSHHHHHHGSYPYDVPDYAGSDLGKKLLEAARAGQDDEVRELLKAGADVNAKDEWDKTPLHYAAALGHLEIVEVLLKAGADVNAKDVWGATPLHIAAFAGHLEIVEVLLKAGADVNAKDTLGYTPLHLAATRGHLEIVEALLKAGADVNAQDKSGKTPADLAADVGHEDIAEVLQKLN

FAP activity (%) [1]: 93%
EC50 [2]: 0.33 nM
Kd [3]: < 0.01 nM
B7: DARPin® protein #15 (designed binder)
chain: MRGSHHHHHHGSYPYDVPDYAGSDLGKKLLEAARAGQDDEVRILMANGADVNAFDAIGRTPLHLAALYGHLEIVEVLLKHVADVNATDEYGITPLHLAAFMGHLEIVEVLLKYGADVNAIDFDGRTPLHPAAYRGHLEIVEVLLKHGADVNAQDKFGKTAFDISIDNGNEDLAEILQKLN

FAP activity (%) [1]: 86%
EC50 [2]: 0.246 nM
Kd [3]: 0.007 nM
B4: DARPin® protein #14 (designed binder)
chain: MRGSHHHHHHGSYPYDVPDYAGSDLGKKLLEAARAGQDDEVRILLAAGADVNAKDYSGRTPLHLAALTGHLEIVKVLLKHGADVNASDDYGITPLHLDAFIGHLEIVEVLLKNGADVNAMDYQGRTPLHPAAYTGHLEIVEVLLKYGADVNAQDKFGKTAFDISIDNGNEDLAEILQKLN
